Like-named read-outs stand apart in the source and are kept apart here.

A word on the Kd: it is the free concentration of one partner at which half of the binding sites on the other are occupied at equilibrium, for simple one-to-one binding.

The target in data set [1] is T1, hLon (human Lon protease) (Homo sapiens, UniProt P36776 68-959).
T1 sequence: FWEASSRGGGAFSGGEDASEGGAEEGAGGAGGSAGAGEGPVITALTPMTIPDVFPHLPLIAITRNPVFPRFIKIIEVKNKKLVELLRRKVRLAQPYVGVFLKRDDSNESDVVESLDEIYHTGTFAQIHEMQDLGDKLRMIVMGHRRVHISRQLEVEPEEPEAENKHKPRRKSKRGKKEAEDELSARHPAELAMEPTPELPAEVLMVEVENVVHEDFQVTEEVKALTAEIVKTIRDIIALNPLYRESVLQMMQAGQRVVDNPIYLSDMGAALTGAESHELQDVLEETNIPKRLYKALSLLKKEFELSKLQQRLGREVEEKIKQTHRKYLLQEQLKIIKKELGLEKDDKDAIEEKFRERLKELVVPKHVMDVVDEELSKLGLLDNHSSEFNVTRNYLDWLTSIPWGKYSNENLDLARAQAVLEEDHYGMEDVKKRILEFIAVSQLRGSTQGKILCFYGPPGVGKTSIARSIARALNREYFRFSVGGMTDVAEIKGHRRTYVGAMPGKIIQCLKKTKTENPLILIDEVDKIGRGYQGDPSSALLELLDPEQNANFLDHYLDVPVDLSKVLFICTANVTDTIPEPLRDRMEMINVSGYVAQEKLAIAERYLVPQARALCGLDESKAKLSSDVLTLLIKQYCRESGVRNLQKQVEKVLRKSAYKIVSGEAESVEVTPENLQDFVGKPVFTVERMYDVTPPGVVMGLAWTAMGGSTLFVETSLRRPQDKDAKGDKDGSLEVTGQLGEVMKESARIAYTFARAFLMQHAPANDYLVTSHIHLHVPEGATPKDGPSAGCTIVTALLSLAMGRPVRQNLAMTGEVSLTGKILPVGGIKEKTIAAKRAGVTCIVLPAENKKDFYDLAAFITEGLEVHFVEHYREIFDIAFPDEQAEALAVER
Briefly: competition.

For data set [2], the target named is T1, hLon (human Lon protease). Briefly: ITC.
For data set [3], the target named is T1, hLon (human Lon protease). As to the kind of experiment: ITC. This is another data set of the same source.
Data set [4] deals with T1, hLon (human Lon protease). As to the kind of experiment: ITC. The source holds these as a separate data set. (In general: ITC needs no label: the signal is the heat of the interaction.)
The target of data set [5] is T1, hLon (human Lon protease). As to the kind of experiment: ITC. This is another data set of the same source.
For data set [6], the target named is T1, hLon (human Lon protease). As to the kind of experiment: ITC. The source holds these as a separate data set.
Data set [7] addresses T1, hLon (human Lon protease). Briefly: ITC. This is another data set of the same source.

B1: LSPas18 (structured_DNA)
DNA: GTGTTAGTTGGGGGGTGA
As to B1, in data set [1], the binding result is on record as “binds”.

B2: LSPas (structured_DNA)
DNA: AATAATGTGTTAGTTGGGGGGTGA
Take B2: the Ka in data set [2] was 2.11 ± 0.11 10^5 M^-1; in data set [3], 2.6 ± 0.72 10^5 M^-1; in data set [4], 3.03 ± 0.83 10^5 M^-1; in data set [5] it was 2.45 ± 0.43 10^5 M^-1.

B3: TG6T (structured_DNA)
DNA: TGGGGGGT
Consider B3, for which the Ka in data set [3] was 3.48 ± 0.36 10^5 M^-1; in data set [6], 1.24 ± 0.58 10^5 M^-1; in data set [4] it was 1.36 ± 0.22 10^5 M^-1; in data set [5] it was 1.35 ± 0.89 10^5 M^-1. The molecule further showed a Kd in data set [7] of 7.35 µM.

(Values after paper PMC2275097.)
